Measurements as given in US20230110958A1 (Regeneron, published 2023).

T1: murine IL27 receptor (IL27Ra and gp130) on mouse cells (MC9/STAT3-Luc reporter cells; splenic CD4+ T cells) (mouse, UniProt O70394 25-623; Q00560 23-917)
T1 sequence (looked up) 1: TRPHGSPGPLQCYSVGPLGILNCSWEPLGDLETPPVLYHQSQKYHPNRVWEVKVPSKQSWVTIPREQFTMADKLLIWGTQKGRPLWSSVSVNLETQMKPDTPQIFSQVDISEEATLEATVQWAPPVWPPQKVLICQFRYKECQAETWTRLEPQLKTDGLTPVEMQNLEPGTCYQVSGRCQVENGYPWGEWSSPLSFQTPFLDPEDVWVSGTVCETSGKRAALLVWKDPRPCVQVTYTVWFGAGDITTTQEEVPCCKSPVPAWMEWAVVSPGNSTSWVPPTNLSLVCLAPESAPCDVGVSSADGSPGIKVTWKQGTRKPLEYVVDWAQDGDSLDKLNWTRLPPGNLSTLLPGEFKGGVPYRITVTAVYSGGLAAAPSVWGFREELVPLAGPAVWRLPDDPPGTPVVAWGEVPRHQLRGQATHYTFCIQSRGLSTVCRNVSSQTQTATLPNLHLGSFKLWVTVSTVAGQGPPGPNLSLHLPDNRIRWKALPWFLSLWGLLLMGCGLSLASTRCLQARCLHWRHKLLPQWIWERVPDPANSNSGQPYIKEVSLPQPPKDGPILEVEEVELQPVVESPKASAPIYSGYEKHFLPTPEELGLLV
T1 sequence (looked up) 2: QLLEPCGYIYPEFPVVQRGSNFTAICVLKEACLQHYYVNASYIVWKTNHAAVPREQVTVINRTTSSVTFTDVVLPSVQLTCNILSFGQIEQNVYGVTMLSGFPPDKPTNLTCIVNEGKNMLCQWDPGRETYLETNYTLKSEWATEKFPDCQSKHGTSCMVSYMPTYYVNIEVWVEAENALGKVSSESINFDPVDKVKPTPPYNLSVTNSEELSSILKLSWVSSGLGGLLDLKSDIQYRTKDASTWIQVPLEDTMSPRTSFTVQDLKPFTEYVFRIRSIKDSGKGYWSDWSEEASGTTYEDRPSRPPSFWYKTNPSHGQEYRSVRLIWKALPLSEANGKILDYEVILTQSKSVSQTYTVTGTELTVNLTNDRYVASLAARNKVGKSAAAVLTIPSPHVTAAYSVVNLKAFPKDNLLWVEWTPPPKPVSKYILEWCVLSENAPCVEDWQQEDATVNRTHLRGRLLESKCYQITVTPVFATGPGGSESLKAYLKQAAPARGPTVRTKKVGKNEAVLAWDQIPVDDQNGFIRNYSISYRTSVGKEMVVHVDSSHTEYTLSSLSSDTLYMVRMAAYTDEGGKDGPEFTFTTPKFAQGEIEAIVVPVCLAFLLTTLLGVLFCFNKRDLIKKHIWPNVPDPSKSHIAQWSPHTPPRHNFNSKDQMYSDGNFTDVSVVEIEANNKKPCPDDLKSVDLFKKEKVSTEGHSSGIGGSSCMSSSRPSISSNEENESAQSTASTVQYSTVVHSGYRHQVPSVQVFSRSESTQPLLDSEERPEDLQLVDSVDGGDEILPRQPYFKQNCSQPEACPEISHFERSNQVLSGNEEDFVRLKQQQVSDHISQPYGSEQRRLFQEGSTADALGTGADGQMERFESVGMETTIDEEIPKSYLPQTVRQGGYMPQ


Tests used:
[1] = target: T1, murine IL27 receptor (IL27Ra and gp130) …; assay: cell-based or functional assay
[2] = target: T1, murine IL27 receptor (IL27Ra and gp130) …; assay: cell-based or functional assay; remark: listed apart in the source

Binder	EC50 (M), STAT3 luciferase, MC9 cells [1] [M]	FOLD INDUCTION, STAT3 luciferase, MC9 cells [1] [fold]	EC50 (M), STAT3 luciferase, MC9/STAT3-Luc cells [2] [M]	FOLD INDUCTION, STAT3 luciferase, MC9/STAT3-Luc cells [2] [fold]
IL27M16, monovalent Fc x EBI3-p28 (Fc fusion) chain 1: ESKYGPPCPPCPAPPVAGPSVFLFPPKPKDTLMISRTPEVTCVVVDVSQEDPEVQFNWYVDGVEVHNAKTKPREEQFNSTYRVVSVLTVLHQDWLNGKEYKCKVSNKGLPSSIEKTISKAKGQPREPQVYTLPPSQEEMTKNQVSLWCLVKGFYPSDIAVEWESNGQPENNYKTTPPVLDSDGSFFLYSRLTVDKSRWQEGNVFSCSVMHEALHNHYTQKSLSLSLGKGGGGSGGGGSGGGGSYTETALVALSQPRVQCHASRYPVAVDCSWTPLQAPNSTRSTSFIATYRLGVATQQQSQPCLQRSPQASRCTIPDVHLFSTVPYMLNVTAVHPGGASSSLLAFVAERIIKPDPPEGVRLRTAGQRLQVLWHPPASWPFPDIFSLKYRLRYRRRGASHFRQVGPIEATTFTLRNSKPHAKYCIQVSAQDLTDYGKPSDWSLPGQVESAPHKPGGGGSGGGGSGGGGSGGGGSFPTDPLSLQELRREFTVSLYLARKLLSEVQGYVHSFAESRLPGVNLDLLPLGYHLPNVSLTFQAWHHLSDSERLCFLATTLRPFPAMLGGLGTQGTWTSSEREQLWAMRLDLRDLHRHLRFQVLAAGFKCSKEEEDKEEEEEEEEEEKKLPLGALGGPNQVSSQVSWPQLLYTYQLLHSLELVLSRAVRDLLLLSLPRRPGSAWDS chain 2: ESKYGPPCPPCPAPPVAGPSVFLFPPKPKDTLMISRTPEVTCVVVDVSQEDPEVQFNWYVDGVEVHNAKTKPREEQFNSTYRVVSVLTVLHQDWLNGKEYKCKVSNKGLPSSIEKTISKAKGQPREPQVYTLPPSQEEMTKNQVSLSCAVKGFYPSDIAVEWESNGQPENNYKTTPPVLDSDGSFFLVSRLTVDKSRWQEGNVFSCSVMHEALHNRFTQKSLSLSPGK	1.18e-11	2.76	1.16e-11	5.62
IL27M27, monovalent Fc x EB13-p28 (W195A) (Fc fusion) chain 1: ESKYGPPCPPCPAPPVAGPSVFLFPPKPKDTLMISRTPEVTCVVVDVSQEDPEVQFNWYVDGVEVHNAKTKPREEQFNSTYRVVSVLTVLHQDWLNGKEYKCKVSNKGLPSSIEKTISKAKGQPREPQVYTLPPSQEEMTKNQVSLWCLVKGFYPSDIAVEWESNGQPENNYKTTPPVLDSDGSFFLYSRLTVDKSRWQEGNVFSCSVMHEALHNHYTQKSLSLSLGKGGGGSGGGGSGGGGSYTETALVALSQPRVQCHASRYPVAVDCSWTPLQAPNSTRSTSFIATYRLGVATQQQSQPCLQRSPQASRCTIPDVHLFSTVPYMLNVTAVHPGGASSSLLAFVAERIIKPDPPEGVRLRTAGQRLQVLWHPPASWPFPDIFSLKYRLRYRRRGASHFRQVGPIEATTFTLRNSKPHAKYCIQVSAQDLTDYGKPSDWSLPGQVESAPHKPGGGGSGGGGSGGGGSGGGGSFPTDPLSLQELRREFTVSLYLARKLLSEVQGYVHSFAESRLPGVNLDLLPLGYHLPNVSLTFQAWHHLSDSERLCFLATTLRPFPAMLGGLGTQGTWTSSEREQLWAMRLDLRDLHRHLRFQVLAAGFKCSKEEEDKEEEEEEEEEEKKLPLGALGGPNQVSSQVSAPQLLYTYQLLHSLELVLSRAVRDLLLLSLPRRPGSAWDS chain 2: ESKYGPPCPPCPAPPVAGPSVFLFPPKPKDTLMISRTPEVTCVVVDVSQEDPEVQFNWYVDGVEVHNAKTKPREEQFNSTYRVVSVLTVLHQDWLNGKEYKCKVSNKGLPSSIEKTISKAKGQPREPQVYTLPPSQEEMTKNQVSLSCAVKGFYPSDIAVEWESNGQPENNYKTTPPVLDSDGSFFLVSRLTVDKSRWQEGNVFSCSVMHEALHNRFTQKSLSLSPGK	–	–	–	1.2
IL27M24, monovalent Fc x EB13-p28 (K52A) (Fc fusion) chain 1: ESKYGPPCPPCPAPPVAGPSVFLFPPKPKDTLMISRTPEVTCVVVDVSQEDPEVQFNWYVDGVEVHNAKTKPREEQFNSTYRVVSVLTVLHQDWLNGKEYKCKVSNKGLPSSIEKTISKAKGQPREPQVYTLPPSQEEMTKNQVSLWCLVKGFYPSDIAVEWESNGQPENNYKTTPPVLDSDGSFFLYSRLTVDKSRWQEGNVFSCSVMHEALHNHYTQKSLSLSLGKGGGGSGGGGSGGGGSYTETALVALSQPRVQCHASRYPVAVDCSWTPLQAPNSTRSTSFIATYRLGVATQQQSQPCLQRSPQASRCTIPDVHLFSTVPYMLNVTAVHPGGASSSLLAFVAERIIKPDPPEGVRLRTAGQRLQVLWHPPASWPFPDIFSLKYRLRYRRRGASHFRQVGPIEATTFTLRNSKPHAKYCIQVSAQDLTDYGKPSDWSLPGQVESAPHKPGGGGSGGGGSGGGGSGGGGSFPTDPLSLQELRREFTVSLYLARALLSEVQGYVHSFAESRLPGVNLDLLPLGYHLPNVSLTFQAWHHLSDSERLCFLATTLRPFPAMLGGLGTQGTWTSSEREQLWAMRLDLRDLHRHLRFQVLAAGFKCSKEEEDKEEEEEEEEEEKKLPLGALGGPNQVSSQVSWPQLLYTYQLLHSLELVLSRAVRDLLLLSLPRRPGSAWDS chain 2: ESKYGPPCPPCPAPPVAGPSVFLFPPKPKDTLMISRTPEVTCVVVDVSQEDPEVQFNWYVDGVEVHNAKTKPREEQFNSTYRVVSVLTVLHQDWLNGKEYKCKVSNKGLPSSIEKTISKAKGQPREPQVYTLPPSQEEMTKNQVSLSCAVKGFYPSDIAVEWESNGQPENNYKTTPPVLDSDGSFFLVSRLTVDKSRWQEGNVFSCSVMHEALHNRFTQKSLSLSPGK	–	–	1.18e-11	5.59
